Reference: publication PMC2939071, “The Crystal Structure of Toxoplasma gondii Pyruvate Kinase 1” (PLoS ONE, 2010)

Key:
[1] = biological target: T1, TgPK1 (T. gondii pyruvate kinase 1), full length (Toxoplasma gondii, UniProt Q969A2); assay: lactate dehydrogenase-coupled NADH assay, Hill fit; type: biochemical; conditions: allosteric activator; 1 mM effector, PEP varied 0.01 to 10 mM, 2 mM ADP, 50 mM KCl, 20 mM MgCl2, pH 7.5
T1 construct: gene pk; full length Met1-Glu531, N-terminal His6 tag and TEV site, tag kept; synthetic gene, expressed in E. coli; homotetramer
T1 sequence (Q969A2 1-531): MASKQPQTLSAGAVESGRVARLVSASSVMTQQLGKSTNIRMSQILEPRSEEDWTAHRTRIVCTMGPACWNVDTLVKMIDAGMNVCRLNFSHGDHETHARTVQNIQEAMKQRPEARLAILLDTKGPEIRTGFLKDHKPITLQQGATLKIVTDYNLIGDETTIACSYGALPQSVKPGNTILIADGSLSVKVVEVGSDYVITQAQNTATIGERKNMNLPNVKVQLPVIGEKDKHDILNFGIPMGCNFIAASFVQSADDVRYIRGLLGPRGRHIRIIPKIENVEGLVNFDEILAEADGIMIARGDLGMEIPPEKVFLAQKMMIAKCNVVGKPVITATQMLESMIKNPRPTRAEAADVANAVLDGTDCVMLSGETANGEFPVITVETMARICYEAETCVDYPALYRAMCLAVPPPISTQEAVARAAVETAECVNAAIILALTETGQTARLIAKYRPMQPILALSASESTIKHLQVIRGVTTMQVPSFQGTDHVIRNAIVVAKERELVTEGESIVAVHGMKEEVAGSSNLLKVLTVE

[2] = biological target: Toxoplasma gondii pyruvate kinase 1, N-terminally truncated (Ile39 to Glu531) (Toxoplasma gondii); assay: crystal structure; truncated TgPK1 crystallised with K+ and Mg2+; 15% PEG3350, 100 mM succinic acid pH 7.0; the asymmetric unit is a tetramer
[3] = biological target: Toxoplasma gondii pyruvate kinase 1, N-terminally truncated (Ile39 to Glu531) (Toxoplasma gondii); assay: SEC; Superdex 200 26/60 in 10 mM HEPES pH 7.5, 500 mM NaCl; oligomeric state from the elution volume (164 mL full length, 168 mL truncated); profile not shown
[4] = biological target: Toxoplasma gondii pyruvate kinase 1, full length (Met1 to Glu531) (Toxoplasma gondii) (UniProt Q27006); assay: as above
[5] = biological target: Toxoplasma gondii pyruvate kinase 1, full length (Met1 to Glu531) (Toxoplasma gondii) (UniProt Q27006); assay: crystal structure; full TgPK1 crystallised without substrates, effectors or added ions; 19% PEG3350, 100 mM BisTris pH 6.0, 200 mM NH4I; the asymmetric unit is a tetramer
[6] = substrate: C=C(OP(=O)(O)O)C(=O)O; assay: lactate dehydrogenase-coupled NADH assay, Hill fit; type: biochemical, Toxoplasma gondii; conditions: no sugar effector, cooperative (Hill), 2 mM ADP, 50 mM KCl, 20 mM MgCl2, 50 mM HEPES pH 7.5, room temperature
From the text: lactate dehydrogenase-coupled NADH assay, Hill fit on TgPK1 (T. gondii pyruvate kinase 1), full length

## O=P(O)(O)OC[C@H]1OC(O)[C@H](O)[C@@H](O)[C@@H]1O (stereo partly shown) [G6P, glucose-6-phosphate]
[1]
  lactate dehydrogenase-coupled NADH assay, Hill fit: G6P showed a classic allosteric activation with a six-fold reduction in the apparent Km

## Toxoplasma gondii pyruvate kinase 1, N-terminally truncated (Ile39 to Glu531) (domain or fragment)
[2]
  stoichiometry N: 4
[3]
  stoichiometry N: 4

## Toxoplasma gondii pyruvate kinase 1, full length (Met1 to Glu531) (from UniProt Q27006 1-509) (enzyme)
[4]
  stoichiometry N: 4
[5]
  stoichiometry N: 4

B1: TgPK1 (T. gondii pyruvate kinase 1), full length (Toxoplasma gondii) (protein)
chain: MASKQPQTLSAGAVESGRVARLVSASSVMTQQLGKSTNIRMSQILEPRSEEDWTAHRTRIVCTMGPACWNVDTLVKMIDAGMNVCRLNFSHGDHETHARTVQNIQEAMKQRPEARLAILLDTKGPEIRTGFLKDHKPITLQQGATLKIVTDYNLIGDETTIACSYGALPQSVKPGNTILIADGSLSVKVVEVGSDYVITQAQNTATIGERKNMNLPNVKVQLPVIGEKDKHDILNFGIPMGCNFIAASFVQSADDVRYIRGLLGPRGRHIRIIPKIENVEGLVNFDEILAEADGIMIARGDLGMEIPPEKVFLAQKMMIAKCNVVGKPVITATQMLESMIKNPRPTRAEAADVANAVLDGTDCVMLSGETANGEFPVITVETMARICYEAETCVDYPALYRAMCLAVPPPISTQEAVARAAVETAECVNAAIILALTETGQTARLIAKYRPMQPILALSASESTIKHLQVIRGVTTMQVPSFQGTDHVIRNAIVVAKERELVTEGESIVAVHGMKEEVAGSSNLLKVLTVE
notes: full length Met1-Glu531, N-terminal His6 tag and TEV site, tag kept; synthetic gene, expressed in E. coli; homotetramer
[6]
  Km: 750 ± 51 µM
  Vmax: 42 µM/min
